Reference: patent US20240384250A1, “FIBROBLAST GROWTH FACTOR 23 MODULATING COMPOUNDS” (THE UAB RESEARCH FOUNDATION, priority 2021, published 2024)
“Also recorded” adds a separate entry of the source.

What was measured:
[1] = biological target: T1, FGFR4 (Homo sapiens, UniProt P22455); test: Plate-based binding assay, FGFR4 coated, FLAG-sKL detected with anti-FLAG HRP; conditions: 40 ng FGFR4 coated, 80 ng FLAG-sKL, compared with FGFR1c
T1 construct: Fc-FGFR4 protein (human ectodomain) was immobilized; purchased R&D Systems 685FR050
T1 sequence (P22455 22-369 limits assumed): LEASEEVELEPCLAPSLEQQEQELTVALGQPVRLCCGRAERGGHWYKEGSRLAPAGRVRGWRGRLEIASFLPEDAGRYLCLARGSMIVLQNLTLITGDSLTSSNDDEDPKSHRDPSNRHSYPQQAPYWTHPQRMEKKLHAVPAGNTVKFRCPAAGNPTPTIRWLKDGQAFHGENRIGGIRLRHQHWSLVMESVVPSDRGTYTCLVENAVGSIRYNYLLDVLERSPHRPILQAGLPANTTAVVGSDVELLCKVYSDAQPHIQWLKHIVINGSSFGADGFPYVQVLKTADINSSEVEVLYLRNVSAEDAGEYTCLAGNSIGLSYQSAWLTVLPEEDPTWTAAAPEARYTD
Experimental: Proteins were coated on 96-well plates (MaxiSorp; 439454, Thermo Fisher Scientific), and proteins were added to wells in 100 μl of enzyme-linked immunosorbent assay (ELISA) coating buffer (E107, Bethyl Laboratories) with a lid placed overtop and incubated at 4° C. overnight. Plates were washed 5× with 350 μl of assay buffer (50 mM Tris [pH 7.4], 200 mM NaCl, 0.01% Tween 20) on a 50 TS microplate washer (BioTek). Plates were blocked for 1 hour in 200 μl of assay buffer with 0.5% BSA. Plates were washed as before, and proteins were incubated on plates in 100 μl of assay buffer with 0.5% BSA. Proteins or heparin was incubated in orders described in the respective figure legends. Assays using FLAG-tag-based detection were incubated with anti-FLAG coupled to HRP at 1:20,000, and assays using Fc detection were incubated with anti-human Fc coupled to HRP at 1:10,000. […] Reactions were stopped with ELISA stop solution (E115, Bethyl Laboratories) and analyzed using the Synergy HI plate reader (BioTek) at 450 nm wavelength. […] As a control to remove background absorbance values, wells were coated with an equal amount of BSA to match the amount of protein coated in experimental wells and treated the same as experimental wells. […]

[2] = Serum phosphate and intact FGF23 after sKL injection in rats; format: in vivo, rat; conditions: sKL 100 μg/kg tail vein
Experimental: To determine the half-life of recombinant sKL protein in the circulation, rats were injected with the Strep-tagged mouse sKL that was purified as described above. Each group consisted of 3 male Sprague Dawley rats (9 weeks of age and weighing approximately 300 g). For injections and bleeding, rats were anesthetized with 2.5% isoflurane. For injections, a shielded i.v. catheter (BD Insyte Autoguard 0.7×19 mm, catalog no. 381412) was inserted into the lateral tail vein and flushed with 100 μl of isotonic saline (0.9%). One milliliter of purified sKL protein dissolved in isotonic saline (100 μg/kg) or isotonic saline was then injected, and the catheter was flushed again with 100 μl of isotonic saline. For bleeding, a shielded i.v. catheter was inserted into the lateral tail vein. Blood samples (300 μl) were taken after 1, 3, 5, 10, 15, 30, and 60 minutes as well as 3, 6, 12, and 48 hours. For collections from 15 minutes to 48 hours postinjection, a separate i.v. catheter was inserted each time to draw blood. […] Reactions were stopped with ELISA stop solution (E115, Bethyl Laboratories) and analyzed using the Synergy HI plate reader (BioTek) at 450 nm wavelength. Amounts of sKL were calculated by taking the slope of the standard curve and calculating where the sample points fit in.

B1: sKL: recombinant soluble α-klotho ectodomain, mouse aa 35-982 and human aa 34-981, FLAG- or Strep/His-tagged, purified from HEK293 cells (protein)
chain: EPGDGAQTWARFSRPPAPEAAGLFQGTFPDGFLWAVGSAAYQTEGGWQQHGKGASIWDTFTHHPLAPPGDSRNASLPLGAPSPLQPATGDVASDSYNNVFRDTEALRELGVTHYRFSISWARVLPNGSAGVPNREGLRYYRRLLERLRELGVQPVVTLYHWDLPQRLQDAYGGWANRALADHFRDYAELCFRHFGGQVKYWITIDNPYVVAWHGYATGRLAPGIRGSPRLGYLVAHNLLLAHAKVWHLYNTSFRPTQGGQVSIALSSHWINPRRMTDHSIKECQKSLDFVLGWFAKPVFIDGDYPESMKNNLSSILPDFTESEKKFIKGTADFFALCFGPTLSFQLLDPHMKFRQLESPNLRQLLSWIDLEFNHPQIFIVENGWFVSGTTKRDDAKYMYYLKKFIMETLKAIKLDGVDVIGYTAWSLMDGFEWHRGYSIRRGLFYVDFLSQDKMLLPKSSALFYQKLIEKNGFPPLPENQPLEGTFPCDFAWGVVDNYIQVDTTLSQFTDLNVYLWDVHHSKRLIKVDGVVTKKRKSYCVDFAAIQPQIALLQEMHVTHFRFSLDWALILPLGNQSQVNHTILQYYRCMASELVRVNITPVVALWQPMAPNQGLPRLLARQGAWENPYTALAFAEYARLCFQELGHHVKLWITMNEPYTRNMTYSAGHNLLKAHALAWHVYNEKFRHAQNGKISIALQADWIEPACPFSQKDKEVAERVLEFDIGWLAEPIFGSGDYPWVMRDWLNQRNNFLLPYFTEDEKKLIQGTFDFLALSHYTTILVDSEKEDPIKYNDYLEVQEMTDITWLNSPSQVAVVPWGLRKVLNWLKFKYGDLPMYIISNGIDDGLHAEDDQLRVYYMQNYINEALKAHILDGINLCGYFAYSFNDRTAPRFGLYRYAADQFEPKASMKHYRKIIDSNGFPGPETLERFCPEEFTVCTECSFFHTRKS
modifications: left off: small tags and cut ends
notes: recombinant soluble α-klotho ectodomain, mouse aa 35-982 and human aa 34-981, FLAG- or Strep/His-tagged, purified from HEK293 cells
[1]
  binding of FLAG-sKL to coated FGFR4: to a lesser extent
[1]; listed as FLAG-sKL
  binding of FLAG-sKL to coated FGFR4: to a lower extent
[2]; serial bleeds
  serum phosphate levels: not significantly altered
[2]; serial bleeds incl. 48 hours
  serum intact FGF23 levels: increases in serum concentrations of FGF23; also recorded: significantly elevated
